Laboratory results taken from article PMC6092944.

Molecular target: His6-MBP-PadeB1
Assay: fluorescence polarisation

Row | Kd [nM] | Ki [nM] | Substance
1 | 69 |  | Fl-PadeA (PadeA labelled with fluorescein-5-maleimide) (peptide)
2 |  | 119 | PadeA(−19 to −7) peptide

Molecular target: His6-MBP-PadeB1
Assay: fluorescence polarisation
Remark: another data set of the same source

Row | Ki [nM] | Substance
3 | 137 | PadeA precursor peptide, wild type (WT)
4 | 127 | PadeA variant A1G (peptide)
5 | 476 | PadeA variant P–12A (peptide)
6 | 1340 | PadeA variant P–12A/Y–15A (peptide)
7 | 152 | PadeA variant T–2A (peptide)
8 | 1180 | PadeA variant Y–15A (peptide)
9 | 120 | PadeA(−19 to −7) peptide
